Reference: US20090192084A1
Values belong to the substance of their own block, whether it stands above or below them.

Legend:
gp78 (human) [1] = target: gp78 (human) (UniProt Q9UKV5); experiment: Flag co-IP, MudPIT MS, DMSO
UBR2 (human) [2] = target: UBR2 (human) (UniProt Q8IWV8); experiment: Flag co-IP, MudPIT MS, DMSO
[3] = target: Kelch-like protein 22. KLEIL22 (human) (UniProt Q53GT1); experiment: Flag co-IP, MudPIT MS, DMSO
[4] = target: CUL3-interacting protein I. KLHL12 (human) (UniProt Q53G59); experiment: Flag co-IP, MudPIT MS, DMSO
Chain of CUL3-interacting protein I. KLHL12 (human) (Q53G59 whole entry): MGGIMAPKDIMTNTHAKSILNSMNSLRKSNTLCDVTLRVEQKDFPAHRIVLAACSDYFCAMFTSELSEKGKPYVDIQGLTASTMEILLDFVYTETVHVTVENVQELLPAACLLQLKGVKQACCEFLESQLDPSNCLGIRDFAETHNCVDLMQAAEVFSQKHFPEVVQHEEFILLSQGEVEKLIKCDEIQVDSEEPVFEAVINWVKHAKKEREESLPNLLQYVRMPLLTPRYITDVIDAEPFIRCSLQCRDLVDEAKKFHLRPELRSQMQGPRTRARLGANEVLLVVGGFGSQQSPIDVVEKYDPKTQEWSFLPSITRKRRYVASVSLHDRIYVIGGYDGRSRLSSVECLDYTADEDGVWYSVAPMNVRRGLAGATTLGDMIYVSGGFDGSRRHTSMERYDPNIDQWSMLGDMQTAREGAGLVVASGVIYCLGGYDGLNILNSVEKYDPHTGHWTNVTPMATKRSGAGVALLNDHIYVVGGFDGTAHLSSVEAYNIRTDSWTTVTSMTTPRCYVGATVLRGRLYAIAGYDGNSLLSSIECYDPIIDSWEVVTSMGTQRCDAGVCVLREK

Praja 2 (human) = Praja 2 (human) (UniProt O43164); experiment: Flag co-IP, MudPIT MS, DMSO
UBR1 (human) = UBR1 (human) (UniProt Q8IWV7); experiment: Flag co-IP, MudPIT MS, DMSO
Chain of UBR1 (human) (Q8IWV7 2-1749 limits assumed): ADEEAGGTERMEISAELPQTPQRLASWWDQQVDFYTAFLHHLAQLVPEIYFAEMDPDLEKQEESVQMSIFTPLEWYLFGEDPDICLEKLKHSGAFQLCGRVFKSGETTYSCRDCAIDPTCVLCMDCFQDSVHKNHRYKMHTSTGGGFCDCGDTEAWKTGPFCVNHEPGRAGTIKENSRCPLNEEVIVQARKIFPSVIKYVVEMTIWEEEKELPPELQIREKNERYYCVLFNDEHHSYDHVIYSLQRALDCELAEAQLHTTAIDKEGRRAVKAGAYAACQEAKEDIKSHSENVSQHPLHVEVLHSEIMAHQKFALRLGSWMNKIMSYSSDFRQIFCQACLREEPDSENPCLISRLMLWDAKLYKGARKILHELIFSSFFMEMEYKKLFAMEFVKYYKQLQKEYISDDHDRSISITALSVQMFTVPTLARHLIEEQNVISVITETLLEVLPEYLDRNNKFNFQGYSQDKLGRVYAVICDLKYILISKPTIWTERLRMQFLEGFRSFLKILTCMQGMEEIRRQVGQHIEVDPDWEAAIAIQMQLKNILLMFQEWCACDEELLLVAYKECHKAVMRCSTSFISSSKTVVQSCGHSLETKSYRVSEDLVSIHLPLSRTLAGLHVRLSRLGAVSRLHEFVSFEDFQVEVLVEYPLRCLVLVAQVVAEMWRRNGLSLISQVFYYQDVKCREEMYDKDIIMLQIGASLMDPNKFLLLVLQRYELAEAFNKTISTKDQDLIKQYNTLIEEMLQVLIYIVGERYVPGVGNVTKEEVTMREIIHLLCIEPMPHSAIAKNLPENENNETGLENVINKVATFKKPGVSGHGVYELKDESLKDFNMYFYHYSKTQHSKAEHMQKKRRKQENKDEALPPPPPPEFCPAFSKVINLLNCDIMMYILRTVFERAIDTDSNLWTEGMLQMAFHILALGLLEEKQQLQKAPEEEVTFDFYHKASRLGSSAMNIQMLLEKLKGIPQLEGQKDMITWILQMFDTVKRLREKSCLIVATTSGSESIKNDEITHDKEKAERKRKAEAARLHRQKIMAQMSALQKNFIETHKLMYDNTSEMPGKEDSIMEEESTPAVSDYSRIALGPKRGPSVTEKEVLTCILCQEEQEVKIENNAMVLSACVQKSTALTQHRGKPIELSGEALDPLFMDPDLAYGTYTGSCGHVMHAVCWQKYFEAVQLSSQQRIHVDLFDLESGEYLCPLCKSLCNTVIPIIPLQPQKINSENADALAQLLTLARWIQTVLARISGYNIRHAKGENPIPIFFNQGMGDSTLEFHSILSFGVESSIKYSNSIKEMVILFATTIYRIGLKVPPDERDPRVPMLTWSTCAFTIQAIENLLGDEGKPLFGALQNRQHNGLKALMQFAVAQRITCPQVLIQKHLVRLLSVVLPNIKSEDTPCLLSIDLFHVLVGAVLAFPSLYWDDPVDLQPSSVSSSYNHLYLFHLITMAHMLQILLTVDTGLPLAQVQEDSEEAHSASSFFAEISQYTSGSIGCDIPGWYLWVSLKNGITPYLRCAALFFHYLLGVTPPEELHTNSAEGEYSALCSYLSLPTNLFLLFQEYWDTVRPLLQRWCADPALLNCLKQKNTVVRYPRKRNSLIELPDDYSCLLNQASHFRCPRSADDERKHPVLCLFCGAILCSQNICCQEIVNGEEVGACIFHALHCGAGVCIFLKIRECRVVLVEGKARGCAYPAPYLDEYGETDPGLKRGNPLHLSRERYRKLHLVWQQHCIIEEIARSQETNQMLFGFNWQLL

[5] = target: Retinoblastoma-associated factor 600, UBR4 (human) (UniProt Q5T4S7); experiment: Flag co-IP, MudPIT MS, DMSO
[6] = target: Baculoviral IAP repeat-containing protein 2, IAP2 (human) (UniProt Q13490); experiment: Flag co-IP, MudPIT MS, DMSO
Chain of Baculoviral IAP repeat-containing protein 2, IAP2 (human) (Q13490 whole entry): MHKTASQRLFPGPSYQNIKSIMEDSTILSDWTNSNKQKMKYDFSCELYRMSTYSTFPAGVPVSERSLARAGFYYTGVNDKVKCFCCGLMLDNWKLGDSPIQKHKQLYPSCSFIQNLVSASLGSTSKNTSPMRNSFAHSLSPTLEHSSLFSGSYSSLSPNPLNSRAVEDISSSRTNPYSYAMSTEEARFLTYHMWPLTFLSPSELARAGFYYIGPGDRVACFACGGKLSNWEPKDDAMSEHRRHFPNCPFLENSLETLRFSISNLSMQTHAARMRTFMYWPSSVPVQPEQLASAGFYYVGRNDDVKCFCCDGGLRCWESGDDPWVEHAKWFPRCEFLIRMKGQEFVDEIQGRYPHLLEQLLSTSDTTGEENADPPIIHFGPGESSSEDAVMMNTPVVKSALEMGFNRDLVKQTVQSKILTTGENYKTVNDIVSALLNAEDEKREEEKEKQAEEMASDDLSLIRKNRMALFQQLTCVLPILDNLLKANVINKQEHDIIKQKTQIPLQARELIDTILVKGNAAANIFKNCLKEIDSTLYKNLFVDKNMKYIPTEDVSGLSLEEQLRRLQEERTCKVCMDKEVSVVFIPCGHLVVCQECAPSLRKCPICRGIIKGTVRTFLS

Cullin 3 (human) = Cullin 3 (human) (UniProt Q13618); experiment: Flag co-IP, MudPIT MS, DMSO
EDD1/UBR5 (human) [7] = target: EDD1/UBR5 (human) (UniProt O95071); experiment: Flag co-IP, MudPIT MS, DMSO
[8] = target: DNA damage-binding protein I. DDB1 (human) (UniProt Q16531); experiment: Flag co-IP, MudPIT MS, DMSO
PLAP (human) = PLAP (human) (UniProt Q9Y263); experiment: Flag co-IP, 293 cells, MudPIT MS
Chain of PLAP (human) (Q9Y263 whole entry): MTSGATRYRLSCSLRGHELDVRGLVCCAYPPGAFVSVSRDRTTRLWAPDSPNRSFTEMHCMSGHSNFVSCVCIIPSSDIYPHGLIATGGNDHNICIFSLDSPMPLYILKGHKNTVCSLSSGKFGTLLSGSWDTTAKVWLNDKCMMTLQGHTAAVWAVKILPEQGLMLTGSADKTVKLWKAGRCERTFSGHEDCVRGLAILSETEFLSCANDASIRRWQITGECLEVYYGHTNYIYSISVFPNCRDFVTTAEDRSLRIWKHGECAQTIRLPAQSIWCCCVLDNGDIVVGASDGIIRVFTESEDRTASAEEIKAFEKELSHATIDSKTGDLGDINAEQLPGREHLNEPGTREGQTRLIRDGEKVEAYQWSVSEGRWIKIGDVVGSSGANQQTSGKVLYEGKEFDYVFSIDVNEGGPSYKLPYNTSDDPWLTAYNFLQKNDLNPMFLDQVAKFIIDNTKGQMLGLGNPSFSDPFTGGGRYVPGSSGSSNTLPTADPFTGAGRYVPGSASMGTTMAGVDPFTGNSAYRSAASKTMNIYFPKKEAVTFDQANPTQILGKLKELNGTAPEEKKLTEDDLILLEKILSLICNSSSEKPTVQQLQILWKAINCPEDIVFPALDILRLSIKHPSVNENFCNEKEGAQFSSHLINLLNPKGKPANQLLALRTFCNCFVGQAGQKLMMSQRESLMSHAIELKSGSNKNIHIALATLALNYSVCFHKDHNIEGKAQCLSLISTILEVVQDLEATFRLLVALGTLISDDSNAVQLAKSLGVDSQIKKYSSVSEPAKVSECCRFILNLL

gp78 (human) [9] = target: gp78 (human) (UniProt Q9UKV5); experiment: Flag co-IP, MudPIT MS, MG132
UBR2 (human) [10] = target: UBR2 (human) (UniProt Q8IWV8); experiment: Flag co-IP, MudPIT MS, MG132
[11] = target: Retinoblastoma-associated factor 600, UBR4 (human) (UniProt Q5T4S7); experiment: Flag co-IP, MudPIT MS, MG132
EDD1/UBR5 (human) [12] = target: EDD1/UBR5 (human) (UniProt O95071); experiment: Flag co-IP, MudPIT MS, MG132
[13] = target: E3 ubiquitin-protein ligase1-HUWE1 (human) (UniProt Q7Z6Z7); experiment: Flag co-IP, MudPIT MS, MG132
[14] = target: DNA damage-binding protein I. DDB1 (human) (UniProt Q16531); experiment: Flag co-IP, MudPIT MS, MG132
[15] = target: E6AP ubiquitin-protein ligase, UBE3A (human) (UniProt Q05086); experiment: Flag co-IP, MudPIT MS, MG132
[16] = target: CUL4- and DDB I-associated WDR protein 2, WDR26 (human) (UniProt Q9H7D7); experiment: Flag co-IP, MudPIT MS, DMSO
Chain of CUL4- and DDB I-associated WDR protein 2, WDR26 (human) (Q9H7D7 whole entry): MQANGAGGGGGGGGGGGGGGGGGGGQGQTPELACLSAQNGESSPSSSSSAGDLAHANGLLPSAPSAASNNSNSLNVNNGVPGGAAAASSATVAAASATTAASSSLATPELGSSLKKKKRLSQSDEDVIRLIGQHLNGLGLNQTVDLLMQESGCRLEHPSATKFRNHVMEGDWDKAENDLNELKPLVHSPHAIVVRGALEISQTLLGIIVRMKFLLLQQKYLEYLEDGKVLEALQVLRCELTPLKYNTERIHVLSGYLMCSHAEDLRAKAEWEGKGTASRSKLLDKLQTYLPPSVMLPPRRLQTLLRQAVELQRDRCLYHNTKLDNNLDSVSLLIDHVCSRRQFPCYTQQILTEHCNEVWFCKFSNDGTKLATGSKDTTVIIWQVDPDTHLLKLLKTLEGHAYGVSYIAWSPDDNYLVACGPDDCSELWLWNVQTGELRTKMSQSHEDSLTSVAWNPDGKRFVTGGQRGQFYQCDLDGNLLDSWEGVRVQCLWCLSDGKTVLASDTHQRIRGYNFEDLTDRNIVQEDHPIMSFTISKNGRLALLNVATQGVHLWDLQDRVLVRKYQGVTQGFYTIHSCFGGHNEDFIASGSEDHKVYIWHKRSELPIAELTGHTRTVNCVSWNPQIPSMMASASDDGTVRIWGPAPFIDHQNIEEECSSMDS

Elongin C (human) = Elongin C (human) (UniProt Q15369); experiment: Flag co-IP, MudPIT MS, MG132

Chain of gp78 (human) (Q9UKV5 whole entry): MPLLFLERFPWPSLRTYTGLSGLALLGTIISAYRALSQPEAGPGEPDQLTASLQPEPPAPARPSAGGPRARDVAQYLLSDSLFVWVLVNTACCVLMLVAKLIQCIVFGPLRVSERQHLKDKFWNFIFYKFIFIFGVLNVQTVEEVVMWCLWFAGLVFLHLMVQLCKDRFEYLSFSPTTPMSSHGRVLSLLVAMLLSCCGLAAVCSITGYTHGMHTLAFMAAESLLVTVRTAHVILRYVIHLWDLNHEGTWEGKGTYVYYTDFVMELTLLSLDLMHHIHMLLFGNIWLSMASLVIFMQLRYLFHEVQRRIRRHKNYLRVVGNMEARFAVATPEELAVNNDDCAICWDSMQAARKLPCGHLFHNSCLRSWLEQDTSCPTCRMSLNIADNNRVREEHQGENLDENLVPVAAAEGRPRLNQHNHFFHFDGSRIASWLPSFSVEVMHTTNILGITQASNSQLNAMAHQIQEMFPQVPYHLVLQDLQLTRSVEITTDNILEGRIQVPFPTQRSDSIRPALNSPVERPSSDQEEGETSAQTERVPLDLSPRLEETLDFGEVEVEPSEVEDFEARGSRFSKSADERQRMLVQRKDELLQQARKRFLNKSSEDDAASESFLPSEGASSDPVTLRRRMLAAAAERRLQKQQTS

- abundance factor (AF) (gp78 (human) [1]): 3.3
- sequence count (gp78 (human) [1]): 3
- spectrum count (gp78 (human) [1]): 3
- abundance factor (AF) (UBR2 (human) [2]): 2.8
- sequence count (UBR2 (human) [2]): 5
- spectrum count (UBR2 (human) [2]): 7
- abundance factor (AF) [3]: 2.3
- sequence count [3]: 2
- spectrum count [3]: 2
- abundance factor (AF) [4]: 6.4
- sequence count [4]: 2
- spectrum count [4]: 5
- abundance factor (AF) (Praja 2 (human)): 3.1
- sequence count (Praja 2 (human)): 3
- spectrum count (Praja 2 (human)): 3
- abundance factor (AF) (UBR1 (human)): 0.8
- sequence count (UBR1 (human)): 2
- spectrum count (UBR1 (human)): 2
- abundance factor (AF) [5]: 3.8
- sequence count [5]: 18
- spectrum count [5]: 27
- abundance factor (AF) [6]: 2.3
- sequence count [6]: 2
- spectrum count [6]: 2
- abundance factor (AF) (Cullin 3 (human)): 2.7
- sequence count (Cullin 3 (human)): 3
- spectrum count (Cullin 3 (human)): 3
- abundance factor (AF) (EDD1/UBR5 (human) [7]): 2.6
- sequence count (EDD1/UBR5 (human) [7]): 9
- spectrum count (EDD1/UBR5 (human) [7]): 10
- sequence count (PLAP (human)): 26
- sequence coverage (PLAP (human)): 32.1%
- spectrum count (PLAP (human)): 90
- abundance factor (AF) (gp78 (human) [9]): 3.6
- sequence count (gp78 (human) [9]): 3
- spectrum count (gp78 (human) [9]): 6
- abundance factor (AF) (UBR2 (human) [10]): 1.3
- sequence count (UBR2 (human) [10]): 3
- spectrum count (UBR2 (human) [10]): 6
- abundance factor (AF) [11]: 5.7
- sequence count [11]: 30
- spectrum count [11]: 74
- abundance factor (AF) (EDD1/UBR5 (human) [12]): 2
- sequence count (EDD1/UBR5 (human) [12]): 9
- spectrum count (EDD1/UBR5 (human) [12]): 14
- abundance factor (AF) [13]: 0.6
- sequence count [13]: 4
- spectrum count [13]: 7
- abundance factor (AF) [15]: 2.2
- sequence count [15]: 4
- spectrum count [15]: 5
Substance: Flag-SAKS1 (from UniProt Q04323 1-297)
- abundance factor (AF) [8]: 1.3
- sequence count [8]: 2
- spectrum count [8]: 2
- abundance factor (AF) [14]: 0.7
- sequence count [14]: 2
- spectrum count [14]: 2

- abundance factor (AF) [16]: 46.4
- sequence count [16]: 12
- spectrum count [16]: 19
- abundance factor (AF) (gp78 (human) [1]): 5.9
- sequence count (gp78 (human) [1]): 3
- spectrum count (gp78 (human) [1]): 3
- abundance factor (AF) (UBR2 (human) [2]): 2.1
- sequence count (UBR2 (human) [2]): 2
- spectrum count (UBR2 (human) [2]): 3
- abundance factor (AF) [3]: 6
- sequence count [3]: 3
- spectrum count [3]: 3
- abundance factor (AF) [4]: 18.1
- sequence count [4]: 6
- spectrum count [4]: 8
- abundance factor (AF) (Praja 2 (human)): 5.5
- sequence count (Praja 2 (human)): 2
- spectrum count (Praja 2 (human)): 3
- abundance factor (AF) (UBR1 (human)): 1.4
- sequence count (UBR1 (human)): 2
- spectrum count (UBR1 (human)): 2
- abundance factor (AF) [5]: 4.5
- sequence count [5]: 12
- spectrum count [5]: 18
- abundance factor (AF) [6]: 6.1
- sequence count [6]: 3
- spectrum count [6]: 3
- abundance factor (AF) (Cullin 3 (human)): 37
- sequence count (Cullin 3 (human)): 13
- spectrum count (Cullin 3 (human)): 23
- sequence count (PLAP (human)): 2
- sequence coverage (PLAP (human)): 4%
- spectrum count (PLAP (human)): 2
- abundance factor (AF) [11]: 2.1
- sequence count [11]: 41
- spectrum count [11]: 49
- abundance factor (AF) (EDD1/UBR5 (human) [12]): 0.2
- sequence count (EDD1/UBR5 (human) [12]): 2
- spectrum count (EDD1/UBR5 (human) [12]): 2
- abundance factor (AF) (Elongin C (human)): 20
- sequence count (Elongin C (human)): 8
- spectrum count (Elongin C (human)): 10
Substance: Flag-UBXD7 (from UniProt O94888 1-489)
- abundance factor (AF) [8]: 12.4
- sequence count [8]: 11
- spectrum count [8]: 11
- abundance factor (AF) [14]: 2.6
- sequence count [14]: 13
- spectrum count [14]: 13

- abundance factor (AF) [16]: 1.2
- sequence count [16]: 2
- spectrum count [16]: 4
- abundance factor (AF) (gp78 (human) [1]): 0.5
- sequence count (gp78 (human) [1]): 2
- spectrum count (gp78 (human) [1]): 2
- abundance factor (AF) (UBR2 (human) [2]): 0.4
- sequence count (UBR2 (human) [2]): 3
- spectrum count (UBR2 (human) [2]): 5
- abundance factor (AF) (Praja 2 (human)): 0.7
- sequence count (Praja 2 (human)): 3
- spectrum count (Praja 2 (human)): 3
- abundance factor (AF) (UBR1 (human)): 0.3
- sequence count (UBR1 (human)): 3
- spectrum count (UBR1 (human)): 3
- abundance factor (AF) [5]: 0.2
- sequence count [5]: 3
- spectrum count [5]: 5
- abundance factor (AF) (EDD1/UBR5 (human) [7]): 0.2
- sequence count (EDD1/UBR5 (human) [7]): 3
- spectrum count (EDD1/UBR5 (human) [7]): 3
- sequence count (PLAP (human)): 10
- sequence coverage (PLAP (human)): 20.1%
- spectrum count (PLAP (human)): 15
- abundance factor (AF) (gp78 (human) [9]): 1.9
- sequence count (gp78 (human) [9]): 4
- spectrum count (gp78 (human) [9]): 6
- abundance factor (AF) (UBR2 (human) [10]): 0.2
- sequence count (UBR2 (human) [10]): 2
- spectrum count (UBR2 (human) [10]): 2
- abundance factor (AF) [11]: 0.3
- sequence count [11]: 6
- spectrum count [11]: 6
- abundance factor (AF) (EDD1/UBR5 (human) [12]): 0.8
- sequence count (EDD1/UBR5 (human) [12]): 9
- spectrum count (EDD1/UBR5 (human) [12]): 10
- abundance factor (AF) [13]: 0.3
- sequence count [13]: 6
- spectrum count [13]: 6
- abundance factor (AF) (Elongin C (human)): 5.7
- sequence count (Elongin C (human)): 2
- spectrum count (Elongin C (human)): 3
- abundance factor (AF) [15]: 0.5
- sequence count [15]: 2
- spectrum count [15]: 2
Substance: Flag-UBXD8 (from UniProt Q96CS3 1-445)
- abundance factor (AF) [8]: 0.3
- sequence count [8]: 2
- spectrum count [8]: 2
- abundance factor (AF) [14]: 0.7
- sequence count [14]: 3
- spectrum count [14]: 4
